According to the supplement of paper PMC11316812:
± gives the standard deviation of the averaged measurements.

Key:
MCF7 = assay: percentage of EdU-negative (G0-arrested) nuclei per well, 72 h; higher = more G0 arrest; conditions: reference: sequence is the full UniProt precursor, the tested protein was the secreted form or ectodomain
hTERT-HMEC = assay: as above; conditions: reference: sequence is the full UniProt precursor, the tested protein was the secreted form or ectodomain
[1] = protein concentration 0.0225 µM
[2] = protein concentration 0.00875 µM
[3] = protein concentration 0.0875 µM
[4] = protein concentration 0.03125 µM
[5] = protein concentration 0.3125 µM
[6] = protein concentration 0.0085 µM
[7] = protein concentration 0.0225714 µM
[8] = protein concentration 0.225714 µM
[9] = protein concentration 0.0357143 µM
[10] = protein concentration 0.357143 µM
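Further: secreted proteins added to cultured cells, EdU pulse at the end, nuclei found by Hoechst imaging, EdU status from nuclear versus surrounding ring intensity ratio, PBS as neutral control.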

MGGRVFLAFCVWLTLPGAETQDSRGCARWCPQNSSCVNATACRCNPGFSSFSEIITTPTETCDDINECATPSKVSCGKFSDCWNTEGSYDCVCSPGYEPVSGAKTFKNESENTCQDVDECQQNPRLCKSYGTCVNTLGSYTCQCLPGFKFIPEDPKVCTDVNECTSGQNPCHSSTHCLNNVGSYQCRCRPGWQPIPGSPNGPNNTVCEDVDECSSGQHQCDSSTVCFNTVGSYSCRCRPGWKPRHGIPNNQKDTVCEDMTFSTWTPPPGVHSQTLSRFFDKVQDLGRDSKTSSAEVTIQNVIKLVDELMEAPGDVEALAPPVRHLIATQLLSNLEDIMRILAKSLPKGPFTYISPSNTELTLMIQERGDKNVTMGQSSARMKLNWAVAAGAEDPGPAVAGILSIQNMTTLLANASLNLHSKKQAELEEIYESSIRGVQLRRLSAVNSIFLSHNNTKELNSPILFAFSHLESSDGEAGRDPPAKDVMPGPRQELLCAFWKSDSDRGGHWATEGCQVLGSKNGSTTCQCSHLSSFAILMAHYDVEDWKLTLITRVGLALSLFCLLLCILTFLLVRPIQGSRTTIHLHLCICLFVGSTIFLAGIENEGGQVGLRCRLVAGLLHYCFLAAFCWMSLEGLELYFLVVRVFQGQGLSTRWLCLIGYGVPLLIVGVSAAIYSKGYGRPRYCWLDFEQGFLWSFLGPVTFIILCNAVIFVTTVWKLTQKFSEINPDMKKLKKARALTITAIAQLFLLGCTWVFGLFIFDDRSLVLTYVFTILNCLQGAFLYLLHCLLNKKVREEYRKWACLVAGGSKYSEFTSTTSGTGHNQTRALRASESGI
percentage of EdU-negative (MCF7; [1]): 24.7 ± 1.8% | percentage of EdU-negative (MCF7; protein concentration 0.225 µM): 26.3 ± 3.2% | percentage of EdU-negative (hTERT-HMEC; [1]): 5.19 ± 0.7% | percentage of EdU-negative (hTERT-HMEC; protein concentration 0.225 µM): 5.66 ± 0.12%

MARFPKADLAAAGVMLLCHFFTDQFQFADGKPGDQILDWQYGVTQAFPHTEEEVEVDSHAYSHRWKRNLDFLKAVDTNRASVGQDSPEPRSFTDLLLDDGQDNNTQIEEDTDHNYYISRIYGPSDSASRDLWVNIDQMEKDKVKIHGILSNTHRQAARVNLSFDFPFYGHFLREITVATGGFIYTGEVVHRMLTATQYIAPLMANFDPSVSRNSTVRYFDNGTALVVQWDHVHLQDNYNLGSFTFQATLLMDGRIIFGYKEIPVLVTQISSTNHPVKVGLSDAFVVVHRIQQIPNVRRRTIYEYHRVELQMSKITNISAVEMTPLPTCLQFNRCGPCVSSQIGFNCSWCSKLQRCSSGFDRHRQDWVDSGCPEESKEKMCENTEPVETSSRTTTTVGATTTQFRVLTTTRRAVTSQFPTSLPTEDDTKIALHLKDNGASTDDSAAEKKGGTLHAGLIIGILILVLIVATAILVTVYMYHHPTSAASIFFIERRPSRWPAMKFRRGSGHPAYAEVEPVGEKEGFIVSEQC [Q6UX71]
percentage of EdU-negative (MCF7; [1]): 27.4 ± 2.7% | percentage of EdU-negative (MCF7; protein concentration 0.225 µM): 26.561 ± 0.011% | percentage of EdU-negative (hTERT-HMEC; [1]): 4.63 ± 0.96% | percentage of EdU-negative (hTERT-HMEC; protein concentration 0.225 µM): 7.25 ± 1.4%

MALTLFDTDEYRPPVWKSYLYQLQQEAPHPRRITCTCEVENRPKYYGREFHGMISREAADQLLIVAEGSYLIRESQRQPGTYTLALRFGSQTRNFRLYYDGKHFVGEKRFESIHDLVTDGLITLYIETKAAEYIAKMTINPIYEHVGYTTLNREPAYKKHMPVLKETHDERDSTGQDGVSEKRLTSLVRRATLKENEQIPKYEKIHNFKVHTFRGPHWCEYCANFMWGLIAQGVKCADCGLNVHKQCSKMVPNDCKPDLKHVKKVYSCDLTTLVKAHTTKRPMVVDMCIREIESRGLNSEGLYRVSGFSDLIEDVKMAFDRDGEKADISVNMYEDINIITGALKLYFRDLPIPLITYDAYPKFIESAKIMDPDEQLETLHEALKLLPPAHCETLRYLMAHLKRVTLHEKENLMNAENLGIVFGPTLMRSPELDAMAALNDIRYQRLVVELLIKNEDILF [B8ZZ96]
percentage of EdU-negative (MCF7; [2]): 25.94 ± 0.25% | percentage of EdU-negative (MCF7; [3]): 26.7 ± 0.53% | percentage of EdU-negative (hTERT-HMEC; [2]): 4.91 ± 0.4% | percentage of EdU-negative (hTERT-HMEC; [3]): 6.84 ± 1.4%

MFPFYSCWRTGLLLLLLAVAVRESWQTEEKTCDLVGEKGKESEKELALVKRLKPLFNKSFESTVGQGSDTYIYIFRVCREAGNHTSGAGLVQINKSNGKETVVGRLNETHIFNGSNWIMLIYKGGDEYDNHCGKEQRRAVVMISCNRHTLADNFNPVSEERGKVQDCFYLFEMDSSLACSPEISHLSVGSILLVTFASLVAVYVVGGFLYQRLVVGAKGMEQFPHLAFWQDLGNLVADGCDFVCRSKPRNVPAAYRGVGDDQLGEESEERDDHLLPM
percentage of EdU-negative (MCF7; [4]): 25.21 ± 0.13% | percentage of EdU-negative (MCF7; [5]): 24.8 ± 1.1% | percentage of EdU-negative (hTERT-HMEC; [4]): 5.26 ± 0.29% | percentage of EdU-negative (hTERT-HMEC; [5]): 5.43 ± 0.57%

MRALEGPGLSLLCLVLALPALLPVPAVRGVAETPTYPWRDAETGERLVCAQCPPGTFVQRPCRRDSPTTCGPCPPRHYTQFWNYLERCRYCNVLCGEREEEARACHATHNRACRCRTGFFAHAGFCLEHASCPPGAGVIAPGTPSQNTQCQPCPPGTFSASSSSSEQCQPHRNCTALGLALNVPGSSSHDTLCTSCTGFPLSTRVPGAEECERAVIDFVAFQDISIKRLQRLLQALEAPEGWGPTPRAGRAALQLKLRRRLTELLGAQDGALLVRLLQALRVARMPGLERSVRERFLPVH
percentage of EdU-negative (MCF7; [6]): 22.9 ± 1.3% | percentage of EdU-negative (MCF7; protein concentration 0.085 µM): 27.9 ± 2.1% | percentage of EdU-negative (hTERT-HMEC; [6]): 4.68 ± 0.12% | percentage of EdU-negative (hTERT-HMEC; protein concentration 0.085 µM): 8.46 ± 1.8%

MMLRLLSSLLLVAVASGYGPPSSRPSSRVVNGEDAVPYSWPWQVSLQYEKSGSFYHTCGGSLIAPDWVVTAGHCISSSRTYQVVLGEYDRAVKEGPEQVIPINSGDLFVHPLWNRSCVACGNDIALIKLSRSAQLGDAVQLASLPPAGDILPNETPCYITGWGRLYTNGPLPDKLQEALLPVVDYEHCSRWNWWGSSVKKTMVCAGGDIRSGCNGDSGGPLNCPTEDGGWQVHGVTSFVSAFGCNTRRKPTVFTRVSAFIDWIEETIASH
percentage of EdU-negative (MCF7; protein concentration 0.022 µM): 25.2 ± 2.1% | percentage of EdU-negative (MCF7; protein concentration 0.22 µM): 29.66 ± 0.19% | percentage of EdU-negative (hTERT-HMEC; protein concentration 0.022 µM): 5.18 ± 0.89% | percentage of EdU-negative (hTERT-HMEC; protein concentration 0.22 µM): 8.27 ± 2%

MPRLSLLLPLLLLLLLPLLPPLSPSLGIRDVGGRRPKCGPCRPEGCPAPAPCPAPGISALDECGCCARCLGAEGASCGGRAGGRCGPGLVCASQAAGAAPEGTGLCVCAQRGTVCGSDGRSYPSVCALRLRARHTPRAHPGHLHKARDGPCEFAPVVVVPPRSVHNVTGAQVGLSCEVRAVPTPVITWRKVTKSPEGTQALEELPGDHVNIAVQVRGGPSDHEATAWILINPLRKEDEGVYQCHAANMVGEAESHSTVTVLDLSKYRSFHFPAPDDRM [Q8WX77]
percentage of EdU-negative (MCF7; [7]): 27.4 ± 0.89% | percentage of EdU-negative (MCF7; [8]): 29.2 ± 0.86% | percentage of EdU-negative (hTERT-HMEC; [7]): 4.78 ± 0.086% | percentage of EdU-negative (hTERT-HMEC; [8]): 4.6 ± 1.4%

MKFFLLLFTIGFCWAQYSPNTQQGRTSIVHLFEWRWVDIALECERYLAPKGFGGVQVSPPNENVAIHNPFRPWWERYQPVSYKLCTRSGNEDEFRNMVTRCNNVGVRIYVDAVINHMSGNAVSAGTSSTCGSYFNPGSRDFPAVPYSGWDFNDGKCKTGSGDIENYNDATQVRDCRLVGLLDLALEKDYVRSKIAEYMNHLIDIGVAGFRLDASKHMWPGDIKAILDKLHNLNSNWFPAGSKPFIYQEVIDLGGEPIKSSDYFGNGRVTEFKYGAKLGTVIRKWNGEKMSYLKNWGEGWGFMPSDRALVFVDNHDNQRGHGAGGASILTFWDARLYKMAVGFMLAHPYGFTRVMSSYRWPRQFQNGNDVNDWVGPPNNNGVIKEVTINPDTTCGNDWVCEHRWRQIRNMVNFRNVVDGQPFTNWYDNGSNQVAFGRGNRGFIVFNNDDWTFSLTLQTGLPAGTYCDVISGDKINGNCTGIKIYVSDDGKAHFSISNSAEDPFIAIHAESKL
percentage of EdU-negative (MCF7; [1]): 25 ± 4.2% | percentage of EdU-negative (MCF7; protein concentration 0.225 µM): 31.3 ± 2.5% | percentage of EdU-negative (hTERT-HMEC; [1]): 6.12 ± 0.67% | percentage of EdU-negative (hTERT-HMEC; protein concentration 0.225 µM): 7.06 ± 0.1%

MALSFSLLMAVLVLSYKSICSLGCDLPQTHSLGNRRALILLAQMGRISHFSCLKDRYDFGFPQEVFDGNQFQKAQAISAFHEMIQQTFNLFSTKDSSAAWDETLLDKFYIELFQQLNDLEACVTQEVGVEEIALMNEDSILAVRKYFQRITLYLMGKKYSPCAWEVVRAEIMRSFSFSTNLQKGLRRKD
percentage of EdU-negative (MCF7; [4]): 47.8 ± 1.4% | percentage of EdU-negative (MCF7; [5]): 49.2 ± 3.4% | percentage of EdU-negative (hTERT-HMEC; [4]): 11.7 ± 1.5% | percentage of EdU-negative (hTERT-HMEC; [5]): 18.9 ± 0.54%

MARAAALLPSRSPPTPLLWPLLLLLLLETGAQDVRVQVLPEVRGQLGGTVELPCHLLPPVPGLYISLVTWQRPDAPANHQNVAAFHPKMGPSFPSPKPGSERLSFVSAKQSTGQDTEAELQDATLALHGLTVEDEGNYTCEFATFPKGSVRGMTWLRVIAKPKNQAEAQKVTFSQDPTTVALCISKEGRPPARISWLSSLDWEAKETQVSGTLAGTVTVTSRFTLVPSGRADGVTVTCKVEHESFEEPALIPVTLSVRYPPEVSISGYDDNWYLGRTDATLSCDVRSNPEPTGYDWSTTSGTFPTSAVAQGSQLVIHAVDSLFNTTFVCTVTNAVGMGRAEQVIFVRETPNTAGAGATGGIIGGIIAAIIATAVAATGILICRQQRKEQTLQGAEEDEDLEGPPSYKPPTPKAKLEAQEMPSQLFTLGASEHSPLKTPYFDAGASCTEQEMPRYHELPTLEERSGPLHPGATSLGSPIPVPPGPPAVEDVSLDLEDEEGEEEEEYLDKINPIYDALSYSSPSDSYQGKGFVMSRAMYV
percentage of EdU-negative (MCF7; [1]): 21.9 ± 1.3% | percentage of EdU-negative (MCF7; protein concentration 0.225 µM): 22.8 ± 0.43% | percentage of EdU-negative (hTERT-HMEC; [1]): 4.75 ± 0.29% | percentage of EdU-negative (hTERT-HMEC; protein concentration 0.225 µM): 5.33 ± 0.83%

MSDLGAVISLLLWGRQLFALYSGNDVTDISDDRFPKPPEIANGYVEHLFRYQCKNYYRLRTEGDGVYTLNDKKQWINKAVGDKLPECEAVCGKPKNPANPVQRILGGHLDAKGSFPWQAKMVSHHNLTTGATLINEQWLLTTAKNLFLNHSENATAKDIAPTLTLYVGKKQLVEIEKVVLHPNYHQVDIGLIKLKQKVLVNERVMPICLPSKNYAEVGRVGYVSGWGQSDNFKLTDHLKYVMLPVADQYDCITHYEGSTCPKWKAPKSPVGVQPILNEHTFCVGMSKYQEDTCYGDAGSAFAVHDLEEDTWYAAGILSFDKSCAVAEYGVYVKVTSIQHWVQKTIAEN
percentage of EdU-negative (MCF7; protein concentration 0.029 µM): 26.82 ± 0.23% | percentage of EdU-negative (MCF7; protein concentration 0.29 µM): 26.1 ± 1.1% | percentage of EdU-negative (hTERT-HMEC; protein concentration 0.029 µM): 4.84 ± 0.049% | percentage of EdU-negative (hTERT-HMEC; protein concentration 0.29 µM): 4.84 ± 0.17%

MCLSHLENMPLSHSRTQGAQRSSWKLWLFCSIVMLLFLCSFSWLIFIFLQLETAKEPCMAKFGPLPSKWQMASSEPPCVNKVSDWKLEILQNGLYLIYGQVAPNANYNDVAPFEVRLYKNKDMIQTLTNKSKIQNVGGTYELHVGDTIDLIFNSEHQVLKNNTYWGIILLANPQFIS [Q9UNG2]
percentage of EdU-negative (MCF7; [9]): 24.5 ± 2.7% | percentage of EdU-negative (MCF7; [10]): 27 ± 1.1% | percentage of EdU-negative (hTERT-HMEC; [9]): 5.8 ± 0.82% | percentage of EdU-negative (hTERT-HMEC; [10]): 7.64 ± 0.14%
